Laboratory results taken from the supplement of paper PMC9170038.

System: K4 kissing-loop RNA reporter
Experiment: apparent KD of K4 kissing-loop reporter; higher = weaker reporter binding
Conditions: Eterna round: R107
Protocol: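 RNA-MaP round R107: designed RNA switches with theophylline, tryptophan, arginine or FMN aptamers are transcribed on-chip within common flanks. They are titrated with a labelled K4 kissing-loop RNA reporter in RNA-MaP buffer (100 mM Tris pH 7.5, 80 mM KCl, 4 mM MgCl2), without ligand or with the indicated ligand. Median apparent KD per design.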

[1] = input ligand: theophylline 20 uM
[2] = input ligand: tryptophan 2.4 mM
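Note: bound reporter read as fluorescence of individual clusters on recovered sequencing chips by microscopy, with normalized cluster intensities fitted with a binding model.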

Row | Sequence | apparent KD of K4 kissing-loop reporter (input ligand: FMN 200 uM) [nM] | apparent KD of K4 kissing-loop reporter (input ligand: arginine 13.2 mM) [nM] | apparent KD of K4 kissing-loop reporter (input ligand: none) [nM] | apparent KD of K4 kissing-loop reporter [1] [nM] | apparent KD of K4 kissing-loop reporter [2] [nM]
1 | UGUCAUUGGUCGGCCGCCACUAGGACCGGGAGUAACCUAGUGAUGUUAGUGUGCUCGGCCGCCACUAGGACCGGGACCGAUGACU [KL-SSTryp-B22 #DoubleAptamer] | 180 | 164 | 157 | 165 | 103
2 | CCGUAGAACGGAAGGAGCGCCAUAGAUAAGAAUUCCGUAAGUGAGUGAUGUUCACACAAAUGGCAGGUAGGUCGCCGUUAUUUAG [Arg B Ex t5] | 178 | 194 | 220 | 202 | 201
3 | AGUACGGACACGGCCGCCACUCAGAAGAAGACAGUAGUGAUGUUACUGAUGGUGAGAAUAAUAAAGAGGACCGGGUGUCGUGCAA [#05 K4 Tryptophan B Same State] | 270 | 191 | 286 | 230 | 171
4 | AUUUUGUUGUCAGGAUAUUAGUAUGGUUUUGGUUUGUUAGUGAUGUUGAUGGUUUGUUUAUGUAUUUAAGAAGGGAUUUAGCGGU [swwsgumullin] | 693 | 463 | 534 | 573 | 424
5 | GGAUGGUAGGCGGCCGCCACUAAAACUGAACACAUACAAGCCAGUGAUGUUGGUAUGAUGAAGUAUAGGACCGGGCCUAGAUAGA [Exclusion - Tryptophan B (Freestyle 3)] | 446 | 384 | 422 | 502 | 469
6 | GCCGUAGAUGGAAGGAGCGUGGUAGACUGUUGAAGUGAUGUUUCAACUCAUUAAGCCCAACCACAGGUAGGUCGCCAUCUACGGC | 133 | 107 | 107 | 112 | 120
7 | AAGUGUGUGGCGGCCGCCACUAGAAUCCAGUGAUGUUGGAGUAAUCAAAUAAAUGAUAAUCAACAUAGGACCGGGCCAUAUAGAA [Same State - Tryptophan B (Freestyle 3)] | 345 | 307 | 349 | 351 | 309
8 | AGGCACGAGCAAGGAUAUCGAGUAGAGUGAUGUUCUGCCUGGGUUGGCCCGUAAGGGCCUUCCCAGCGAGAAGGUGCUCGUGCCU [#2 Same State - FMN A Attempt #10 (HarryS)] | 233 | 505 | 647 | 679 | 536
9 | AGAUUCGACACGGCCGCCACUCGUGGUGGAUUAUCCUAUGUAAGACAUGAGUGAUGUUCAUGUACGAGGACCGGGUGUUGAGUCU [KL-XTryp-B5 #analogue] | 496 | 403 | 488 | 568 | 272
10 | AAAAUAAACUAGUGAUGUUGGUGUCCAGAUACCAGCGACGAAAGUCGCCCUUGGCAGCUGUGGACGUACAAAAUAAGUACGUCCU [MatMod 21 - Jieux - Same State - Theophylline A] | 319 | 183 | 345 | 198 | 289
11 | CUCGUGGGUUUGAGAGGGCUUGUGGGAAGUGAGGAUAUUUAGGGAGAAAGAAGGCACUAUAGAAUAUAGUGAUGUUAUAUAUGGG [SSFMNA.Q] | 313 | 109 | 264 | 69.3 | 256
12 | CGAACCUCCAAAGGAUAUCUCGUUUAGUGAUGUUUUGCGUAGUAUCAGGAUAGAAUAUUGAUUCAGAGAGAAGGUUGACGUUGGU [theeternabot_exclusion_KL_FMN_B_14] | 733 | 428 | 684 | 511 | 537
13 | GGGCGUGGCGCGGCCGCCACUGGGCCUGGGUGCUCGCUGAGUGAUGUUCGUCGGCGGUUGGGUCGUAGGACCGGGUGCUGGUUGG [BDazzled - #9 SS Tryptophan B] | 771 | 347 | 607 | 447 | 575
14 | AAUUUAUUAACUGAUACCAGACUUAAUAAAUUGUAAAUUACUAGUGAUGUUAGUGAAUUUGUCCCUUGGCAGCAGUAUUUAUUAA [JR_ExcTheophyB_Sub009] | 123 | 133 | 124 | 141 | 106
15 | AUAGGCUAGCGAAACGCUAGCCUAACAGAUACCAGUCGCGAAAGCGACCCUUGGCAGCUGCUGAGUGAUGUUCAGGUGAAUGAAU | 442 | 285 | 418 | 403 | 374
16 | AAAAUUAAGGCCGAAUUAACUUCUUGCAUACGAGGACCGGUACGGCCGCCACUCGAGUCAAGUGAUGUUUGACAAUCUAUUAUUA [JR_ExcTryptoA_Sub010] | 81.2 | 124 | 110 | 138 | 128
17 | GCAGUGAUGUUGCUGAUGUGCAGUGGUAGUCGAGGACCGGUACGGCCGCCACUCGGUGAGAAUUUGUUAAUACAUCGAUAAGUGA [XVI] | 968 | 558 | 788 | 509 | 707
18 | GCCGUACGCAUGGAUACCAGCUGCGAAGUGAUGUUUCGGGCGAUCAAAGGAUCGCCCUACAGCCCUUGGCAGCCAUGCGUACGGC | 215 | 117 | 173 | 125 | 118
